Starred links: 1 amine or outer side, 2 acyl side, 3 side chain; linkers in the order of their positions; H or OH if unused. Positions of bridges follow the written chain, without caps; N, C: chain ends. Non-standard residues stand in square brackets, D forms with d. Groups on a side chain read outwards from the residue. *: point of attachment. C20 diacid = O=C(O)CCCCCCCCCCCCCCCCCCC(=O)*; Trp(1-Me) = Cn1cc(C[C@H](N)C(=O)O)c2ccccc21; C18 diacid = O=C(O)CCCCCCCCCCCCCCCCC(=O)*; C16 diacid = O=C(O)CCCCCCCCCCCCCCC(=O)*; γGlu = O=C(O)[C@H](CCC(=O)[*:2])N[*:1]; AEEA = NCCOCCOCC(=O)O; Sar = CNCC(=O)O
B1: Compound 5 (peptide)
peptide: Ac-ICIWQDWGKHRCT-NH2
modifications: disulfide 2-12
SMILES: CC[C@H](C)[C@H](NC(C)=O)C(=O)N[C@H]1CSSC[C@@H](C(=O)N[C@H](C(N)=O)[C@@H](C)O)NC(=O)[C@H](CCCNC(=N)N)NC(=O)[C@H](Cc2c[nH]cn2)NC(=O)[C@H](CCCCN)NC(=O)CNC(=O)[C@H](Cc2c[nH]c3ccccc23)NC(=O)[C@H](CC(=O)O)NC(=O)[C@H](CCC(N)=O)NC(=O)[C@H](Cc2c[nH]c3ccccc23)NC(=O)[C@H]([C@@H](C)CC)NC1=O
B2: Compound 152 (peptide)
peptide: SEFCIWQDWGEHRAGEGEXXK
modifications: not fully specified; N-acetyl; C-terminal amide; gamma-cystathionine (Ctt1) thioether bridge hCys4-A14 (hCys written C); W6 is 1-Me-Trp; G15 is Sar; X19 and X20 are Peg3; K21 side chain bears [17-carboxy-heptadecanoyl][γGlu]G[γGlu]
B3: Compound 118 (peptide)
peptide: Ac-SEYCI[Trp(1-Me)]QDWGEHRC[Sar]EGAK([AEEA-γGlu-AEEA-Gly-γGlu-C18 diacid])-NH2
modifications: disulfide 4-14
SMILES: CC[C@H](C)[C@@H]1NC(=O)[C@@H](NC(=O)[C@H](Cc2ccc(O)cc2)NC(=O)[C@H](CCC(=O)O)NC(=O)[C@H](CO)NC(C)=O)CSSC[C@@H](C(=O)N(C)CC(=O)N[C@@H](CCC(=O)O)C(=O)NCC(=O)N[C@@H](C)C(=O)N[C@@H](CCCCNC(=O)COCCOCCNC(=O)CC[C@H](NC(=O)COCCOCCNC(=O)CNC(=O)CC[C@H](NC(=O)CCCCCCCCCCCCCCCCC(=O)O)C(=O)O)C(=O)O)C(N)=O)NC(=O)[C@H](CCCNC(=N)N)NC(=O)[C@H](Cc2c[nH]cn2)NC(=O)[C@H](CCC(=O)O)NC(=O)CNC(=O)[C@H](Cc2c[nH]c3ccccc23)NC(=O)[C@H](CC(=O)O)NC(=O)[C@H](CCC(N)=O)NC(=O)[C@H](Cc2cn(C)c3ccccc23)NC1=O
B4: Compound 120 (peptide)
peptide: Ac-SEFCI[Trp(1-Me)]QEWGEHRC[Sar]EGAK([AEEA-γGlu-AEEA-Gly-γGlu-C18 diacid])-NH2
modifications: disulfide 4-14
SMILES: CC[C@H](C)[C@@H]1NC(=O)[C@@H](NC(=O)[C@H](Cc2ccccc2)NC(=O)[C@H](CCC(=O)O)NC(=O)[C@H](CO)NC(C)=O)CSSC[C@@H](C(=O)N(C)CC(=O)N[C@@H](CCC(=O)O)C(=O)NCC(=O)N[C@@H](C)C(=O)N[C@@H](CCCCNC(=O)COCCOCCNC(=O)CC[C@H](NC(=O)COCCOCCNC(=O)CNC(=O)CC[C@H](NC(=O)CCCCCCCCCCCCCCCCC(=O)O)C(=O)O)C(=O)O)C(N)=O)NC(=O)[C@H](CCCNC(=N)N)NC(=O)[C@H](Cc2c[nH]cn2)NC(=O)[C@H](CCC(=O)O)NC(=O)CNC(=O)[C@H](Cc2c[nH]c3ccccc23)NC(=O)[C@H](CCC(=O)O)NC(=O)[C@H](CCC(N)=O)NC(=O)[C@H](Cc2cn(C)c3ccccc23)NC1=O
B5: Compound 101 (peptide)
peptide: Ac-EGSAICIWQDWGEHRCTEGK([γGlu-C16 diacid])-NH2
modifications: disulfide 6-16
SMILES: CC[C@H](C)[C@H](NC(=O)[C@H](C)NC(=O)[C@H](CO)NC(=O)CNC(=O)[C@H](CCC(=O)O)NC(C)=O)C(=O)N[C@H]1CSSC[C@@H](C(=O)N[C@H](C(=O)N[C@@H](CCC(=O)O)C(=O)NCC(=O)N[C@@H](CCCCNC(=O)CC[C@H](NC(=O)CCCCCCCCCCCCCCC(=O)O)C(=O)O)C(N)=O)[C@@H](C)O)NC(=O)[C@H](CCCNC(=N)N)NC(=O)[C@H](Cc2c[nH]cn2)NC(=O)[C@H](CCC(=O)O)NC(=O)CNC(=O)[C@H](Cc2c[nH]c3ccccc23)NC(=O)[C@H](CC(=O)O)NC(=O)[C@H](CCC(N)=O)NC(=O)[C@H](Cc2c[nH]c3ccccc23)NC(=O)[C@H]([C@@H](C)CC)NC1=O
B6: Compound 97 (peptide)
peptide: Ac-ICIWQDWGEHRCTEGEK([AEEA-AEEA-γGlu-C18 diacid])-NH2
modifications: disulfide 2-12
SMILES: CC[C@H](C)[C@H](NC(C)=O)C(=O)N[C@H]1CSSC[C@@H](C(=O)N[C@H](C(=O)N[C@@H](CCC(=O)O)C(=O)NCC(=O)N[C@@H](CCC(=O)O)C(=O)N[C@@H](CCCCNC(=O)COCCOCCNC(=O)COCCOCCNC(=O)CC[C@H](NC(=O)CCCCCCCCCCCCCCCCC(=O)O)C(=O)O)C(N)=O)[C@@H](C)O)NC(=O)[C@H](CCCNC(=N)N)NC(=O)[C@H](Cc2c[nH]cn2)NC(=O)[C@H](CCC(=O)O)NC(=O)CNC(=O)[C@H](Cc2c[nH]c3ccccc23)NC(=O)[C@H](CC(=O)O)NC(=O)[C@H](CCC(N)=O)NC(=O)[C@H](Cc2c[nH]c3ccccc23)NC(=O)[C@H]([C@@H](C)CC)NC1=O
B7: Compound 96 (peptide)
peptide: Ac-ICIWQDWGEHRCTEGK([AEEA-AEEA-γGlu-C18 diacid])-NH2
modifications: disulfide 2-12
SMILES: CC[C@H](C)[C@H](NC(C)=O)C(=O)N[C@H]1CSSC[C@@H](C(=O)N[C@H](C(=O)N[C@@H](CCC(=O)O)C(=O)NCC(=O)N[C@@H](CCCCNC(=O)COCCOCCNC(=O)COCCOCCNC(=O)CC[C@H](NC(=O)CCCCCCCCCCCCCCCCC(=O)O)C(=O)O)C(N)=O)[C@@H](C)O)NC(=O)[C@H](CCCNC(=N)N)NC(=O)[C@H](Cc2c[nH]cn2)NC(=O)[C@H](CCC(=O)O)NC(=O)CNC(=O)[C@H](Cc2c[nH]c3ccccc23)NC(=O)[C@H](CC(=O)O)NC(=O)[C@H](CCC(N)=O)NC(=O)[C@H](Cc2c[nH]c3ccccc23)NC(=O)[C@H]([C@@H](C)CC)NC1=O
B8: Compound 53 (peptide)
peptide: Ac-EGSAFCI[Trp(1-Me)]QDWGEHRC[Sar]E-NH2
modifications: disulfide 6-16
SMILES: CC[C@H](C)[C@@H]1NC(=O)[C@@H](NC(=O)[C@H](Cc2ccccc2)NC(=O)[C@H](C)NC(=O)[C@H](CO)NC(=O)CNC(=O)[C@H](CCC(=O)O)NC(C)=O)CSSC[C@@H](C(=O)N(C)CC(=O)N[C@@H](CCC(=O)O)C(N)=O)NC(=O)[C@H](CCCNC(=N)N)NC(=O)[C@H](Cc2c[nH]cn2)NC(=O)[C@H](CCC(=O)O)NC(=O)CNC(=O)[C@H](Cc2c[nH]c3ccccc23)NC(=O)[C@H](CC(=O)O)NC(=O)[C@H](CCC(N)=O)NC(=O)[C@H](Cc2cn(C)c3ccccc23)NC1=O
B9: Compound 148 (peptide)
peptide: SEFAIWQDWGEHRCTEGEXESK
modifications: not fully specified; N-acetyl; C-terminal amide; delta-cystathionine (Ctt2) thioether bridge A4-hCys14 (hCys written C); W6 is 1-Me-Trp; X19 is Peg3; K22 side chain bears [17-carboxy-heptadecanoyl][γGlu]
B10: Compound 8 (peptide)
peptide: Ac-ICIWQKWGAHRCTGAES-NH2
modifications: disulfide 2-12
SMILES: CC[C@H](C)[C@H](NC(C)=O)C(=O)N[C@H]1CSSC[C@@H](C(=O)N[C@H](C(=O)NCC(=O)N[C@@H](C)C(=O)N[C@@H](CCC(=O)O)C(=O)N[C@@H](CO)C(N)=O)[C@@H](C)O)NC(=O)[C@H](CCCNC(=N)N)NC(=O)[C@H](Cc2c[nH]cn2)NC(=O)[C@H](C)NC(=O)CNC(=O)[C@H](Cc2c[nH]c3ccccc23)NC(=O)[C@H](CCCCN)NC(=O)[C@H](CCC(N)=O)NC(=O)[C@H](Cc2c[nH]c3ccccc23)NC(=O)[C@H]([C@@H](C)CC)NC1=O
B11: Compound 106 (peptide)
peptide: Ac-SAYCI[Trp(1-Me)]QDWGEHRC[Sar]EK([γGlu-Gly-γGlu-C18 diacid])-NH2
modifications: disulfide 4-14
SMILES: CC[C@H](C)[C@@H]1NC(=O)[C@@H](NC(=O)[C@H](Cc2ccc(O)cc2)NC(=O)[C@H](C)NC(=O)[C@H](CO)NC(C)=O)CSSC[C@@H](C(=O)N(C)CC(=O)N[C@@H](CCC(=O)O)C(=O)N[C@@H](CCCCNC(=O)CC[C@H](NC(=O)CNC(=O)CC[C@H](NC(=O)CCCCCCCCCCCCCCCCC(=O)O)C(=O)O)C(=O)O)C(N)=O)NC(=O)[C@H](CCCNC(=N)N)NC(=O)[C@H](Cc2c[nH]cn2)NC(=O)[C@H](CCC(=O)O)NC(=O)CNC(=O)[C@H](Cc2c[nH]c3ccccc23)NC(=O)[C@H](CC(=O)O)NC(=O)[C@H](CCC(N)=O)NC(=O)[C@H](Cc2cn(C)c3ccccc23)NC1=O
B12: Compound 98 (peptide)
peptide: Ac-ICIWQDWGEHRCTEGK([AEEA-AEEA-γGlu-C20 diacid])-NH2
modifications: disulfide 2-12
SMILES: CC[C@H](C)[C@H](NC(C)=O)C(=O)N[C@H]1CSSC[C@@H](C(=O)N[C@H](C(=O)N[C@@H](CCC(=O)O)C(=O)NCC(=O)N[C@@H](CCCCNC(=O)COCCOCCNC(=O)COCCOCCNC(=O)CC[C@H](NC(=O)CCCCCCCCCCCCCCCCCCC(=O)O)C(=O)O)C(N)=O)[C@@H](C)O)NC(=O)[C@H](CCCNC(=N)N)NC(=O)[C@H](Cc2c[nH]cn2)NC(=O)[C@H](CCC(=O)O)NC(=O)CNC(=O)[C@H](Cc2c[nH]c3ccccc23)NC(=O)[C@H](CC(=O)O)NC(=O)[C@H](CCC(N)=O)NC(=O)[C@H](Cc2c[nH]c3ccccc23)NC(=O)[C@H]([C@@H](C)CC)NC1=O
B13: Compound 7 (peptide)
peptide: Ac-ICIWQKWGEHRCT-NH2
modifications: disulfide 2-12
SMILES: CC[C@H](C)[C@H](NC(C)=O)C(=O)N[C@H]1CSSC[C@@H](C(=O)N[C@H](C(N)=O)[C@@H](C)O)NC(=O)[C@H](CCCNC(=N)N)NC(=O)[C@H](Cc2c[nH]cn2)NC(=O)[C@H](CCC(=O)O)NC(=O)CNC(=O)[C@H](Cc2c[nH]c3ccccc23)NC(=O)[C@H](CCCCN)NC(=O)[C@H](CCC(N)=O)NC(=O)[C@H](Cc2c[nH]c3ccccc23)NC(=O)[C@H]([C@@H](C)CC)NC1=O

Target: Human C3 (human, UniProt P01024 23-1663)
Experiment: cell-based or functional assay

Sequence of Human C3 (P01024 23-1663 limits assumed): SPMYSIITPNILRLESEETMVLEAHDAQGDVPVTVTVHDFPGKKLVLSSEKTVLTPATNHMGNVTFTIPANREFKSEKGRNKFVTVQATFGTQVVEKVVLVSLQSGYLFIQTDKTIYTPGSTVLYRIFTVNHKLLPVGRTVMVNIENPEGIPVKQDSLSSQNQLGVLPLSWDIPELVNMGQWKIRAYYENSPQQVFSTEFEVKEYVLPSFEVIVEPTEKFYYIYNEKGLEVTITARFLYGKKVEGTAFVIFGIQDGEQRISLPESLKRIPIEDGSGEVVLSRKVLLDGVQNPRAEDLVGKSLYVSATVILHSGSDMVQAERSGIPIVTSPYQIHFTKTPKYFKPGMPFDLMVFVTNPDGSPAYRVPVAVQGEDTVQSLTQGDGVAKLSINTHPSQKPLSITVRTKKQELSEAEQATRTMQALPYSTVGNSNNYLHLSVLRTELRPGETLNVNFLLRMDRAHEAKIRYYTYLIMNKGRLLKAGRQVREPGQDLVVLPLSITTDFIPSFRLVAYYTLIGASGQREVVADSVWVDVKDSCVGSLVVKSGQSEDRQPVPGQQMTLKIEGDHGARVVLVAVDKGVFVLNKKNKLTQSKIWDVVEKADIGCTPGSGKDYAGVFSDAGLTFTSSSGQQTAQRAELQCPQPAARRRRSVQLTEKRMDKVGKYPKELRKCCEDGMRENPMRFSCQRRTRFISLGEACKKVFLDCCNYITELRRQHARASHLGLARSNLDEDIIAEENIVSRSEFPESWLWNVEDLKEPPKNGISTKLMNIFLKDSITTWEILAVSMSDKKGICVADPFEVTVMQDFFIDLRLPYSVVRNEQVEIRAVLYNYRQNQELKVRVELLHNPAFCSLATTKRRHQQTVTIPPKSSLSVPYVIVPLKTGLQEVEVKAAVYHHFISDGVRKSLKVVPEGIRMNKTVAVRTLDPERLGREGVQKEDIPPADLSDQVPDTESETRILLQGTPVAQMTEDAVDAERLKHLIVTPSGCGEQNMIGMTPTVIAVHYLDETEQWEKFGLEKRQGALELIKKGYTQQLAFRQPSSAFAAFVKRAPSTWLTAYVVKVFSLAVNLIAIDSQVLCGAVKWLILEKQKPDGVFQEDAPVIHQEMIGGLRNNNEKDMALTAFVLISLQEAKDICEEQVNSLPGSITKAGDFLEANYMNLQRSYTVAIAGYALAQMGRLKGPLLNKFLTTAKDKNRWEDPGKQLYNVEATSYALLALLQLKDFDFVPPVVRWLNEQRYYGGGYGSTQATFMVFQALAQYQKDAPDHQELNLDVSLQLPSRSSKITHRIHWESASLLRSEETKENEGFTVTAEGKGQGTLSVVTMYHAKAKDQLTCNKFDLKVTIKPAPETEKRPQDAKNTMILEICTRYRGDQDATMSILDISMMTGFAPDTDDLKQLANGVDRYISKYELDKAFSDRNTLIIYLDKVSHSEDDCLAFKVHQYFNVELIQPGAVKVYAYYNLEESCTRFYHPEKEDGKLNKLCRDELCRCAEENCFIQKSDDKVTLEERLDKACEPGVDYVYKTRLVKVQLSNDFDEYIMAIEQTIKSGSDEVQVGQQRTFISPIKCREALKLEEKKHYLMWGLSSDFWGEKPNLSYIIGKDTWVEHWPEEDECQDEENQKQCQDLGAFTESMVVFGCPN

With B1 as the binder, how does the “IC50[nM], inhibition of hemolysis” value read?
The value was < 250 nM.

How did the “IC50[nM], inhibition of hemolysis” value turn out when Ac-SEFCI[Trp(1-Me)]QDWGEHRC[Sar]EGE[AEEA][AEEA]K([γGlu-Gly-γGlu-C18 diacid])-NH2 (disulfide 4-14) [Compound 123] was run?
Its value is < 100 nM.

For B2, which “IC50[nM], inhibition of hemolysis” value is on record?
Its value is < 100 nM.

How did the “IC50[nM], inhibition of hemolysis” value turn out when B3 was run?
The value was < 100 nM.

Which “IC50[nM], inhibition of hemolysis” value does the source give for B4 here?
The value was < 250 nM.

Which “IC50[nM], inhibition of hemolysis” value does the source give for Ac-SEFCI[Trp(1-Me)]QDWGEHRC[Sar]EGE[AEEA][AEEA]K([γGlu-Gly-γGlu-C20 diacid])-NH2 (disulfide 4-14, also called comp 128) [Compound 128] here?
The value was < 100 nM.

With B5 as the binder, how does the “IC50[nM], inhibition of hemolysis” value read?
Its value is < 500 nM.

How did the “IC50[nM], inhibition of hemolysis” value turn out when B6 was run?
The value was < 250 nM.

With B7 as the binder, how does the “IC50[nM], inhibition of hemolysis” value read?
The value was < 1000 nM.

For B8, which “IC50[nM], inhibition of hemolysis” value is on record?
The value was < 100 nM.

For B9, which “IC50[nM], inhibition of hemolysis” value is on record?
Its value is < 100 nM.

Which “IC50[nM], inhibition of hemolysis” value does the source give for B10 here?
Its value is < 500 nM.

How did the “IC50[nM], inhibition of hemolysis” value turn out when B11 was run?
Its value is < 250 nM.

For {15‑Carboxy‑pentadecanoyl}-ESSAICIWQDWGEHRCTEGE-NH2 (disulfide 6-16) [Compound 99], which “IC50[nM], inhibition of hemolysis” value is on record?
The value was < 250 nM.

How did the “IC50[nM], inhibition of hemolysis” value turn out when B12 was run?
Its value is < 500 nM.

With B13 as the binder, how does the “IC50[nM], inhibition of hemolysis” value read?
Its value is < 1000 nM.
